# Measured values reported in patent publication US9238056B2, “Cyclic peptide and conjugate thereof for binding to keratinocytes” (LEO PHARMA A/S, priority 2011, dated 2016).
# Bridge positions count the residues as written; N and C are the ends. Ends that are not written are not given here. * marks the point of attachment. Acetylthioacetyl = CC(=O)SCC(=O)*
# T1: integrin α2β1 receptor (Homo sapiens, UniProt P17301)
# T1 sequence (P17301 153-368 limits assumed): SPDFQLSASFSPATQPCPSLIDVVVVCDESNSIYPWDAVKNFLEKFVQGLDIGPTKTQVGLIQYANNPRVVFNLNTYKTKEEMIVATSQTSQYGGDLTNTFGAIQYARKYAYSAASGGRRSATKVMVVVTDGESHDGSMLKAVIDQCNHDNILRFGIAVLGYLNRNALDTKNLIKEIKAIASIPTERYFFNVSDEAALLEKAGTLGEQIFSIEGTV
# B1: AKK12 head-to-tail cyclized control peptide H-KHDNRQS-(SATA)KSTAK-OH, conjugated to DiD-labeled liposomes (peptide)
# peptide: cyclo(KHDNRQSKSTAK)
# modifications: not fully specified (residue 8)
# notes: Control peptide with similar charge as RKK12 but without the RKK motif (Arg and Ala exchanged); tested only as a liposome conjugate; also called AKK12-peptide; AKK12-liposomes
# B2: RKK12 head-to-tail cyclized targeting peptide H-KHDNAQS-(SATA)KSTRK-OH, conjugated to DiD-labeled liposomes (peptide)
# peptide: cyclo(KHDNAQSKSTRK)
# modifications: not fully specified (residue 8)
# notes: Synthetic cyclic peptide; tested only as a conjugate on the surface of DiD-labeled PEGylated liposomes, so many copies per particle; also called RKK12-peptide; RKK-12 peptide
# How the values were obtained:
# integrin α2β1 receptor = target: T1, integrin α2β1 receptor; conditions: cyclic peptide: in the presence of 2 mM MgCl2; cited from earlier work
# HaCat cells = conditions: cited from earlier work
# A431 cells [1] = test: Binding of DiD-labeled peptide-conjugated liposomes to A431 cells at 4° C. (flow cytometry); format: cell-based, human
# Description: (§1) Human epidermal carcinoma cells A431 were subcultured in Dulbecco's modified Eagle's medium (DMEM) containing 3.7 g/l sodium bicarbonate and 4.5 g/l glucose, supplemented with antimicrobial agents, 2 mM L-glutamine and 7.5% (v/v) fetal bovine serum, at 37° C. in a humidified atmosphere containing 5% CO2. Nearly confluent mono-layers of A431 cells were washed with PBS and cells were detached using 1 mM tris-EDTA in PBS. The cells were subsequently suspended in cold PBS supplemented with 1.26 mM CaCl2 and 0.81 mM MgSO4 at 4° C. The cells were counted after centrifugation and 10^5 cells in 100 μl media were incubated with 100 μl liposomes diluted in PBS supplemented with 1.26 mM CaCl and 0.81 mM MgSO4, different concentrations of DiD-labeled liposomes (10-200 nmol total lipid), RKK12-conjugated liposomes (RKK12-liposomes) or AKK12-coupled liposomes (AKK12-liposomes) for 1 h at 4° C.
# (§2) In the cellular internalization of liposomes experiment, similar different concentrations of DiD-labeled liposomes (10-200 nmol total lipid) RKK12-liposomes were incubated for 1 hour at 37° C. […] At the end of the incubation period, cells were washed three times in the 5% BSA supplemented PBS-buffer at 4° C., and resuspended in 200 μl PBS supplied with 5% BSA after which they were analyzed on a FACScalibur flow cytometer (Becton-Dickinson). […]
# A431 cells [2] = test: Cellular internalization of DiD-labeled peptide-conjugated liposomes at 37° C. (flow cytometry); format: cell-based, human; conditions: 1 hour at 37° C., FIG. 4
# Description: as §1, §2
# [3] = system: Adult human epidermal keratinocytes (HEKa); test: Cathelicidin (CAMP) expression by qPCR in keratinocytes incubated with calcipotriol-loaded liposomes; format: cell-based; conditions: 10^−7 M calcipotriol, 1 h at 37° C. then 24 h, versus placebo RKK12-conjugated liposomes, FIG. 6
# Description: Adult human epidermal keratinocytes (HEKa) were obtained from Cascade Biologics (Portland, Oreg., USA) and cultured in EpiLife Medium (Cascade Biologics) containing human keratinocyte growth supplement and gentamicin/Amphotericin B (Cascade Biologics) at 37° C. in a humidified atmosphere with 5% CO2. For the cell interaction assay, 2×10^5 exponentially growing keratinocytes were seeded one day prior to treatment. On the following day (at 80% confluency), the medium was renewed, and the cell culture media was supplied with 15 μl of liposome suspension for a final concentration of 10^−7 M calcipotriol in the well, 15 μl placebo liposomal suspension, or calcipotriol in 0.1% DMSO solution for a final concentration of 10^−7 M and incubated 1 h at 37° C. The liposomes were conjugated with either the RKK12-peptide or the AKK12-peptide. After 1 h, the cells were washed three times with PBS supplemented with 1% BSA, and 1.5 ml media was added followed by incubation for 24 h at 37° C. Subsequently, the medium was removed, and mRNA was extracted using the RNeasy kit from Quiagen (Hilden, Germany). […] The relative change in the expression of CAMP was quantified using the comparative CT method (2^−ΔΔCt)(K. J. Livak and T. D. Schmittgen, Methods 25, 2001, pp. 402-408).
# [4] = target: T2, integrin α2β1 receptor on the surface of A431 human epidermal carcinoma cells (human, UniProt P17301 30-1181; P05556 21-798); test: flow cytometry, DiD-labeled peptide-conjugated liposomes on A431 cells at 4° C.
# T2 construct: whole, on cells; Endogenous receptor on A431 cells; also called human integrin α2β1 receptor
# T2 sequence (P17301 30-1181, chain 1 of 2): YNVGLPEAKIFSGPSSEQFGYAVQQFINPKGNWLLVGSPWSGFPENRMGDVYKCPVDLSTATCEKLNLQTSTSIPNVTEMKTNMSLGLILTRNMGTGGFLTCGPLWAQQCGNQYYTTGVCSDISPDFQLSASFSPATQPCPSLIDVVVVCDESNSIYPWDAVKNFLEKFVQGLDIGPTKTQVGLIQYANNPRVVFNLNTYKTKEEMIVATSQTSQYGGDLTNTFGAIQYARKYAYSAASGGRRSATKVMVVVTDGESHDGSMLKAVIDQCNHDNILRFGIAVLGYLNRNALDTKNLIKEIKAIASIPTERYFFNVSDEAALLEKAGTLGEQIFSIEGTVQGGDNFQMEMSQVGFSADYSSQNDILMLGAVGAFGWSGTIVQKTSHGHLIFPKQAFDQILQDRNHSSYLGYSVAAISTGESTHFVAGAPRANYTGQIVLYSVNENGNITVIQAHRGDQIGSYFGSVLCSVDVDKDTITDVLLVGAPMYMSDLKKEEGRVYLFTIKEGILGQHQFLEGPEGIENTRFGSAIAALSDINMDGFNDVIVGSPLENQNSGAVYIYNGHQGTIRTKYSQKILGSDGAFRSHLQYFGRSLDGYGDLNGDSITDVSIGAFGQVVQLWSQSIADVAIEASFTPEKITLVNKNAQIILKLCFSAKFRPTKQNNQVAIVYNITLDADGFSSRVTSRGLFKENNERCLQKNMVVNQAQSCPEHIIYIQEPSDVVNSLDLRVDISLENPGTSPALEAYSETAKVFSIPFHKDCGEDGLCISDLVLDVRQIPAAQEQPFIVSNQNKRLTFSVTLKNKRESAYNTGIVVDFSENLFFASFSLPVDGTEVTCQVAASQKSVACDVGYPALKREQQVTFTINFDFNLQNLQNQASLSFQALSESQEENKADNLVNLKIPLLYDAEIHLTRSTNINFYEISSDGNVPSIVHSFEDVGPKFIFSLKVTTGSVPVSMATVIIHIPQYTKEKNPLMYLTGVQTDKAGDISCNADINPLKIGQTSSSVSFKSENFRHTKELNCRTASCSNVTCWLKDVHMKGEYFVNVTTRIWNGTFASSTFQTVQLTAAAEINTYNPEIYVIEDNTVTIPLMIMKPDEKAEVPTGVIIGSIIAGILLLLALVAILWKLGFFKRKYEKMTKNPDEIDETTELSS
# T2 sequence (P05556 21-798, chain 2 of 2): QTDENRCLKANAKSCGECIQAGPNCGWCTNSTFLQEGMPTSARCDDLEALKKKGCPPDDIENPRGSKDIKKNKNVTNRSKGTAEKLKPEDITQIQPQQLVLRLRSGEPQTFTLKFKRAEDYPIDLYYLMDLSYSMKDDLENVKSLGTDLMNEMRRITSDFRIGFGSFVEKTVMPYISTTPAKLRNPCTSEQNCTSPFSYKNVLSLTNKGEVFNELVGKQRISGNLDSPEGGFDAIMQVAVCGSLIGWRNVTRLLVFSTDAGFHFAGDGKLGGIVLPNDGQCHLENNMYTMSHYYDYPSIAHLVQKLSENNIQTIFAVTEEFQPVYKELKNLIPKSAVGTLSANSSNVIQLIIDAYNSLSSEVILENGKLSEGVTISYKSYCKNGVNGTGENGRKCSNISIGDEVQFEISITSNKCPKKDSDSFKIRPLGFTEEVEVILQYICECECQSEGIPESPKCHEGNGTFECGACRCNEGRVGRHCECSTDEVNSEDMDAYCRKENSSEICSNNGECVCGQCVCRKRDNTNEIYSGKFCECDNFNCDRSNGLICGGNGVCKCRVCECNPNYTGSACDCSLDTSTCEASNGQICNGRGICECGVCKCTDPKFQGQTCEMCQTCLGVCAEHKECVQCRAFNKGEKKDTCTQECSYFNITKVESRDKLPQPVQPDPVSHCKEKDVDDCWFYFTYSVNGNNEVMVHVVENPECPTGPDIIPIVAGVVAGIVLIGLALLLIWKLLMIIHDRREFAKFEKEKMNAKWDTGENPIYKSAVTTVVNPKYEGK
molecule,measurement,setting,value
C^241TRKKHDNAQ^249C: nine amino acid long cyclic peptide with RKK motif derived from jararhagin (Ivaska et al.) (CTRKKHDNAQC; disulfide 1-11),inhibition of collagen I interaction with the integrin α2β1 receptor,integrin α2β1 receptor,inhibit the interaction
C=C1/C(=C\C=C2/CCC[C@]3(C)[C@@H]([C@H](C)/C=C/[C@@H](O)C4CC4)CC[C@@H]23)C[C@@H](O)C[C@@H]1O [calcipotriol],levels of cathelicidin,HaCat cells,Increased levels
"RKK12-liposomes: DiD-labeled liposomes (DSPC, PEG2000-DSPE, Mal-PEG2000-DSPE, cholesterol) conjugated with RKK12 peptide (cyclo(KHDNAQSK(Acetylthioacetyl)STRK); also: conjugated to DiD-labeled liposomes)","association of liposomes at low Mg2+ concentrations, versus AKK12-conjugated liposomes","A431 cells [1]; 4° C., PBS not supplied with CaCl2 or MgSO4, FIG. 5",only slightly higher
same,fluorescence of cells (association of liposomes),"A431 cells [1]; 1 h at 4° C., PBS with 1.26 mM CaCl2 and 0.81 mM MgSO4, 10-200 nmol total lipid, FIG. 3",significantly more fluorescent
same,internalization (cellular uptake) of liposomes,A431 cells [2],highest
AKK12-conjugated liposomes: calcipotriol-loaded liposomes conjugated with the control peptide AKK12 (cyclo(KHDNRQSK(Acetylthioacetyl)STAK); not fully specified),expression of cathelicidin (CAMP) normalized to GAPDH,[3],no significant difference between the formulations
B1,binding result,[4],binds
B2,binding result,[4],binds
